Assay results reported in paper PMC10786891, “Massively parallel profiling of RNA-targeting CRISPR-Cas13d”.
Numbering of substitutions follows the chain as printed. Numbers in names are those of the source.

T1: EsCas13d, nuclease-dead (Eubacterium siraeum, UniProt B0MS50, R295A;H300A;R849A;H854A)
T1 sequence: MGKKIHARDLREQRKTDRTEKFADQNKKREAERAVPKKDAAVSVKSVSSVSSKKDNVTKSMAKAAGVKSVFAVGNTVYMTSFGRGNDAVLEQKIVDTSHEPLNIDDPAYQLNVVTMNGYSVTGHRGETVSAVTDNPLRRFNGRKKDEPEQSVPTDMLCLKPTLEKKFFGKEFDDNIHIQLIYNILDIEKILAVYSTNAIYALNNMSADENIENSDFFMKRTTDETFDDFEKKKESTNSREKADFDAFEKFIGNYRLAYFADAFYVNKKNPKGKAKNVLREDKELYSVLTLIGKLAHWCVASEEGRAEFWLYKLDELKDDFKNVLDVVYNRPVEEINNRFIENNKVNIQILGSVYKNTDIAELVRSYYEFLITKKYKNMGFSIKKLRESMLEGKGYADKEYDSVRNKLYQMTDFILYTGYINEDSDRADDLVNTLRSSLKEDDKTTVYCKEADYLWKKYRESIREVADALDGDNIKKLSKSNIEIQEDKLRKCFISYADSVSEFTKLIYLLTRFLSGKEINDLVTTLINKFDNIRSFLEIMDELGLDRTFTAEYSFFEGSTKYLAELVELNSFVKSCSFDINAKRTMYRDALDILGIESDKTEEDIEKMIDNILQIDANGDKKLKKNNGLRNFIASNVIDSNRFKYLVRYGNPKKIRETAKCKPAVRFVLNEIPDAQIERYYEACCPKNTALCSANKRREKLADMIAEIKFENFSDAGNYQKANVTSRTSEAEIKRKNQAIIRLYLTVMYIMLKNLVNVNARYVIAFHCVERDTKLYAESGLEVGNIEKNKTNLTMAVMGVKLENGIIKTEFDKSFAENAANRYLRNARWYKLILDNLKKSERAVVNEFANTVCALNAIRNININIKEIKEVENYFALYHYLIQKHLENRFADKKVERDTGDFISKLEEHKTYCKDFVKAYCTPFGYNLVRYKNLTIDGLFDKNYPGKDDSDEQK

B1: target 1 MT 5'PFS GCA 3'PFS UGU (mixed)
RNA 1: CACCCGUGCAAAAAUGCAGGGGUCUAAAACUGAGCGGAUAACCUCUCUAUGG
RNA 2: GGGAAUGGAUCCACAUCUACGAAUUCGCACCAUAGAGAGGUUAUCCGCUCAUGUAGAUCGGAAGAGCACACGU
B2: target 1 MT 5'PFS ACC 3'PFS CCG (mixed)
RNA 1: B1 RNA 1
RNA 2: B1 RNA 2 with G27A, A29C, U52C, G53C, U54G
B3: target 1 MT 5'PFS UAG 3'PFS CAA (mixed)
RNA 1: B1 RNA 1
RNA 2: B1 RNA 2 with G27U, C28A, A29G, U52C, G53A, U54A
B4: target 1 MT 5'PFS UAG 3'PFS CAG (mixed)
RNA 1: B1 RNA 1
RNA 2: B1 RNA 2 with G27U, C28A, A29G, U52C, G53A, U54G
B5: target 1 MT 5'PFS CCG 3'PFS AGA (mixed)
RNA 1: B1 RNA 1
RNA 2: B1 RNA 2 with G27C, A29G, U52A, U54A
B6: target 1 MT 5'PFS GCG 3'PFS UAA (mixed)
RNA 1: B1 RNA 1
RNA 2: B1 RNA 2 with A29G, G53A, U54A
B7: target 1 U8C,U11G (mixed)
RNA 1: B1 RNA 1
RNA 2: B1 RNA 2 with C28U, U41G, U44C, U52C, G53C, U54G
B8: target 1 MT 5'PFS GAA 3'PFS AGA (mixed)
RNA 1: B1 RNA 1
RNA 2: B1 RNA 2 with C28A, U52A, U54A
B9: target 1 MT 5'PFS ACG 3'PFS UGA (mixed)
RNA 1: B1 RNA 1
RNA 2: B1 RNA 2 with G27A, A29G, U54A
B10: target 1 MT 5'PFS GGC 3'PFS CGU (mixed)
RNA 1: B1 RNA 1
RNA 2: B1 RNA 2 with C28G, A29C, U52C
B11: target 1 MT 5'PFS ACG 3'PFS UGU (mixed)
RNA 1: B1 RNA 1
RNA 2: B1 RNA 2 with G27A, A29G
B12: target 1 MT 5'PFS GAA 3'PFS UAA (mixed)
RNA 1: B1 RNA 1
RNA 2: B1 RNA 2 with C28A, G53A, U54A
B13: target 1 insC 3' of 11,insA 3' of 5 (mixed)
RNA 1: B1 RNA 1
RNA 2: GGGAAUGGAUCCACAUCUACGAAUUCGUACCAUAGAGAGGUCUAUCCGACUCACCGAGAUCGGAAGAGCACACGU
B14: target 1 MT 5'PFS GUU 3'PFS UCU (mixed)
RNA 1: B1 RNA 1
RNA 2: B1 RNA 2 with C28U, A29U, G53C
B15: target 1 MT 5'PFS GCG 3'PFS UAG (mixed)
RNA 1: B1 RNA 1
RNA 2: B1 RNA 2 with A29G, G53A, U54G
B16: target 1 MT 5'PFS GAA 3'PFS UAU (mixed)
RNA 1: B1 RNA 1
RNA 2: B1 RNA 2 with C28A, G53A
B17: target 1 MT 5'PFS GUU 3'PFS UCC (mixed)
RNA 1: B1 RNA 1
RNA 2: B1 RNA 2 with C28U, A29U, G53C, U54C
B18: target 1 MT 5'PFS GUU 3'PFS UCA (mixed)
RNA 1: B1 RNA 1
RNA 2: B1 RNA 2 with C28U, A29U, G53C, U54A
B19: target 1 MT 5'PFS UAU 3'PFS UCG (mixed)
RNA 1: B1 RNA 1
RNA 2: B1 RNA 2 with G27U, C28A, A29U, G53C, U54G
B20: target 1 MT 5'PFS GUU 3'PFS AAA (mixed)
RNA 1: B1 RNA 1
RNA 2: B1 RNA 2 with C28U, A29U, U52A, G53A, U54A
B21: target 1 MT 5'PFS GUG 3'PFS GUG (mixed)
RNA 1: B1 RNA 1
RNA 2: B1 RNA 2 with C28U, A29G, U52G, G53U, U54G
B22: target 1 MT 5'PFS UAU 3'PFS UCU (mixed)
RNA 1: B1 RNA 1
RNA 2: B1 RNA 2 with G27U, C28A, A29U, G53C
B23: target 1 MT 5'PFS AAU 3'PFS ACA (mixed)
RNA 1: B1 RNA 1
RNA 2: B1 RNA 2 with G27A, C28A, A29U, U52A, G53C, U54A
B24: target 1 MT 5'PFS CUG 3'PFS UCU (mixed)
RNA 1: B1 RNA 1
RNA 2: B1 RNA 2 with G27C, C28U, A29G, G53C
B25: target 1 MT 5'PFS GAA 3'PFS UAC (mixed)
RNA 1: B1 RNA 1
RNA 2: B1 RNA 2 with C28A, G53A, U54C
B26: target 1 MT 5'PFS GUU 3'PFS AAU (mixed)
RNA 1: B1 RNA 1
RNA 2: B1 RNA 2 with C28U, A29U, U52A, G53A
B27: target 1 MT 5'PFS GCG 3'PFS UAU (mixed)
RNA 1: B1 RNA 1
RNA 2: B1 RNA 2 with A29G, G53A
B28: target 1 MT 5'PFS GUU 3'PFS AAG (mixed)
RNA 1: B1 RNA 1
RNA 2: B1 RNA 2 with C28U, A29U, U52A, G53A, U54G
B29: target 1 G5A,C6A (mixed)
RNA 1: B1 RNA 1
RNA 2: B1 RNA 2 with C28U, C46A, G47A, U52C, G53C, U54G
B30: target 1 MT 5'PFS GUU 3'PFS UCG (mixed)
RNA 1: B1 RNA 1
RNA 2: B1 RNA 2 with C28U, A29U, G53C, U54G
B31: target 1 MT 5'PFS CCG 3'PFS AGU (mixed)
RNA 1: B1 RNA 1
RNA 2: B1 RNA 2 with G27C, A29G, U52A
B32: target 1 MT 5'PFS GCG 3'PFS UAC (mixed)
RNA 1: B1 RNA 1
RNA 2: B1 RNA 2 with A29G, G53A, U54C
B33: target 1 MT 5'PFS GUA 3'PFS CUU (mixed)
RNA 1: B1 RNA 1
RNA 2: B1 RNA 2 with C28U, U52C, G53U
B34: target 1 MT 5'PFS UAG 3'PFS CAU (mixed)
RNA 1: B1 RNA 1
RNA 2: B1 RNA 2 with G27U, C28A, A29G, U52C, G53A
B35: target 1 MT 5'PFS GAA 3'PFS AGG (mixed)
RNA 1: B1 RNA 1
RNA 2: B1 RNA 2 with C28A, U52A, U54G
B36: target 1 MT 5'PFS UAG 3'PFS CAC (mixed)
RNA 1: B1 RNA 1
RNA 2: B1 RNA 2 with G27U, C28A, A29G, U52C, G53A, U54C
B37: target 1 MT 5'PFS CUG 3'PFS ACU (mixed)
RNA 1: B1 RNA 1
RNA 2: B1 RNA 2 with G27C, C28U, A29G, U52A, G53C
B38: target 1 MT 5'PFS AAU 3'PFS ACG (mixed)
RNA 1: B1 RNA 1
RNA 2: B1 RNA 2 with G27A, C28A, A29U, U52A, G53C, U54G
B39: target 1 MT 5'PFS GUG 3'PFS GUC (mixed)
RNA 1: B1 RNA 1
RNA 2: B1 RNA 2 with C28U, A29G, U52G, G53U, U54C
B40: target 1 MT 5'PFS CUG 3'PFS UCC (mixed)
RNA 1: B1 RNA 1
RNA 2: B1 RNA 2 with G27C, C28U, A29G, G53C, U54C

molecular target: T1, EsCas13d, nuclease-dead; test: crRNA (strand 1, pre-loaded); Mg2+; 40 mM Tris-HCl pH 7.5, 150 mM NaCl, 6 mM MgCl2, 1 mM DTT, 0.1% Tween-20, 0.2 mg/ml BSA; 25 C; 10 min per concentration, then washed; conditions: tags: His6-TwinStrep-SUMO cleaved; N-terminal SNAP kept (SNAP-Surface 488); label: 3' end held by stalled T7 RNA polymerase

Binder | Kd [nM]
B1 | 35 ± 7.5
B2 | ~18.5
B3 | 51 ± 11
B4 | 42.5 ± 13
B5 | 4.45 ± 1.5
B6 | 10.6 ± 1.6
B7 | 27 ± 2.5
B8 | 62 ± 21.5
B9 | 20.5 ± 7.5
B10 | 10.7 ± 1.75
B11 | ~74.5
B12 | 23 ± 7.5
B13 | 7.9 ± 0.8
B14 | 12.7 ± 1.4
B15 | 17.5 ± 4
B16 | 27.5 ± 6
B17 | 14.8 ± 3.65
B18 | 15.6 ± 2.1
B19 | 29 ± 7
B20 | 46.5 ± 13.5

Binder | Kd [nM]
B21 | 8.9 ± 0.55
B22 | 32 ± 6.5
B23 | ~32
B24 | 3.55 ± 0.8
B25 | 40 ± 11
B26 | 22 ± 4.5
B27 | 12.2 ± 2.95
B28 | 37.5 ± 8.5
B29 | 5.75 ± 0.22
B30 | 18.5 ± 2.7
B31 | 10 ± 4.5
B32 | 13.2 ± 2.3
B33 | 8.52 ± 0.595
B34 | 65 ± 21
B35 | 81 ± 34
B36 | ~43
B37 | 5.55 ± 1.45
B38 | 47 ± 13
B39 | 17 ± 2.6
B40 | 4.75 ± 1.1
